Data taken from US20250339531A1 (FRED HUTCHINSON CANCER CENTER, published 2025).

Key:
[1] = biological target: T1, Proteasome subunit alpha type (Homo sapiens); assay: anti-FLAG co-IP LC-MS, exp 3, +IFNg +Dox
T1 construct: also called PSMA6

[2] = biological target: T2, DNA-dependent protein kinase catalytic subunit (Homo sapiens, UniProt P78527 1-4128); assay: anti-FLAG co-IP LC-MS, exp 3, +IFNg +Dox
T2 construct: also called PRKDC

[3] = biological target: T3, Immunoglobulin kappa variable 2-40 (Homo sapiens); assay: anti-FLAG co-IP LC-MS, exp 3, +IFNg +Dox
T3 construct: also called IGKV2-40
T3 sequence (A0A087WW87 20-121): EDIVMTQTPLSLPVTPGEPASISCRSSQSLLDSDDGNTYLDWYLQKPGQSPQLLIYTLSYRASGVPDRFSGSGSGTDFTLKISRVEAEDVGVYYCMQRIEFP

[4] = biological target: T4, Uncharacterized protein (Fragment) (Homo sapiens); assay: anti-FLAG co-IP LC-MS, exp 3, +IFNg +Dox
T4 construct: also called NA (Homology to TAP2)

Nucleolin = biological target: T5, Nucleolin (Homo sapiens, UniProt P19338 2-710); assay: anti-FLAG co-IP LC-MS, exp 3, +IFNg +Dox
T5 construct: also called NCL

[5] = biological target: T6, Signal transducer and activator of transcription 1-alpha/beta (Homo sapiens, UniProt P42224 2-750); assay: anti-FLAG co-IP LC-MS, exp 3, +IFNg +Dox
T6 construct: also called STAT1
T6 sequence (looked up): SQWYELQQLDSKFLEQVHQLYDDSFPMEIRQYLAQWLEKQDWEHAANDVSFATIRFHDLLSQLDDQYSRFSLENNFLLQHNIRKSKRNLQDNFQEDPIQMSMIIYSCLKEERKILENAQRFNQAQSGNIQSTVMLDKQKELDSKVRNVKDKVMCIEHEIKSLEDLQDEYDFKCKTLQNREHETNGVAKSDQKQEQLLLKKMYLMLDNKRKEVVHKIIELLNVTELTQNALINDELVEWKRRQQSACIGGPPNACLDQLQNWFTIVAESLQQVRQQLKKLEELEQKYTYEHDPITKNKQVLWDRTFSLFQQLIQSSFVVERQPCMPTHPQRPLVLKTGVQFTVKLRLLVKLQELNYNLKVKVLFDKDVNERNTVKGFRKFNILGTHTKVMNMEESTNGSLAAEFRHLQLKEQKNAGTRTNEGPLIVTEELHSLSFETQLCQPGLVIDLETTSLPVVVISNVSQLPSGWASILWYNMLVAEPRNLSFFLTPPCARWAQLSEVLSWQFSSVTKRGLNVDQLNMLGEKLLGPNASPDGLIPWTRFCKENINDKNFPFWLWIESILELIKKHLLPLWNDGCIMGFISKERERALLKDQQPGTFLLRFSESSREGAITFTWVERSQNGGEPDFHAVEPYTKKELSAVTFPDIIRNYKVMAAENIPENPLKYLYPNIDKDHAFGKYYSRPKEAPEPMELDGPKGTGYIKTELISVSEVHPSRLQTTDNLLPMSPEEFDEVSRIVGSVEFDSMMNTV

[6] = biological target: ATP-dependent RNA helicase DDX3X (Homo sapiens, UniProt O00571 2-662); assay: anti-FLAG co-IP LC-MS, exp 3, +IFNg +Dox
[7] = biological target: T7, cDNA FLJ56329, highly similar to Myosin light polypeptide 6 (Homo sapiens); assay: anti-FLAG co-IP LC-MS, exp 3, +IFNg +Dox
T7 construct: also called MYL6

[8] = biological target: T8, Nuclease-sensitive element-binding protein 1 (Fragment) (Homo sapiens, UniProt P67809 2-324); assay: anti-FLAG co-IP LC-MS, exp 3, +IFNg +Dox
T8 construct: also called YBX1
T8 sequence (P67809 2-324 limits assumed): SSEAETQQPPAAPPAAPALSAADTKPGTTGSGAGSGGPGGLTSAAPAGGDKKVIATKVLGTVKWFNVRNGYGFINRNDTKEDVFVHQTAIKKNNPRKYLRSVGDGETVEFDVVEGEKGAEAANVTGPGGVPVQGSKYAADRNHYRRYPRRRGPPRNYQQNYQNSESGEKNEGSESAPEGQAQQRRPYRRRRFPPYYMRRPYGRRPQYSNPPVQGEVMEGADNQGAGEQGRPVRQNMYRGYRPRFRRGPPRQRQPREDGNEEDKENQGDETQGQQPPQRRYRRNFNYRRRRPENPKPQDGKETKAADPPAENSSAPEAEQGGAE

[9] = biological target: T9, Heterogeneous nuclear ribonucleoprotein U (Homo sapiens, UniProt Q00839 2-825); assay: anti-FLAG co-IP LC-MS, exp 3, +IFNg +Dox
T9 construct: also called HNRNPU; HNRPU

[10] = biological target: T10, Heterogeneous nuclear ribonucleoprotein M (Homo sapiens, UniProt P52272 2-730); assay: anti-FLAG co-IP LC-MS, exp 3, +IFNg +Dox
T10 construct: also called HNRNPM
T10 sequence (looked up): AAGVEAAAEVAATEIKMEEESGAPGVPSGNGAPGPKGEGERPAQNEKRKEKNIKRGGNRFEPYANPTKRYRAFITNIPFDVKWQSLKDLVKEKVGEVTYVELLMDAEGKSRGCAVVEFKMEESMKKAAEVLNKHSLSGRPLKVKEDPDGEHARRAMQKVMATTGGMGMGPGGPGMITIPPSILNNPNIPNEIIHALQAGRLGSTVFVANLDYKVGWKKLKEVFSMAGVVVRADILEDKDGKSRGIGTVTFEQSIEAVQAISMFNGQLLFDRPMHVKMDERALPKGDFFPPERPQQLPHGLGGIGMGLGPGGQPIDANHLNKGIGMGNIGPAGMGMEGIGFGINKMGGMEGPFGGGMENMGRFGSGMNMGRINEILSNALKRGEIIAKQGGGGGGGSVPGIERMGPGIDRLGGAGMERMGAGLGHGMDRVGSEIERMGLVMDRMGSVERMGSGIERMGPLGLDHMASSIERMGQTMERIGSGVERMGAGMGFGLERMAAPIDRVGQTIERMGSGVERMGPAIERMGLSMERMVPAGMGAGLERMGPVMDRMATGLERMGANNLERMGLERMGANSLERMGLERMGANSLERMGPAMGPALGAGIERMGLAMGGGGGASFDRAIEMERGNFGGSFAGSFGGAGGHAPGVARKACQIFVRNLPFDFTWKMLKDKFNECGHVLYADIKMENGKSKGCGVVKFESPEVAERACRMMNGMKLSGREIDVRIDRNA

[11] = biological target: T11, Cyclin-dependent kinase 4 (Homo sapiens, UniProt P11802 2-303); assay: anti-FLAG co-IP LC-MS, exp 3, +IFNg +Dox
T11 construct: also called CDK4
T11 sequence (P11802 2-303 limits assumed): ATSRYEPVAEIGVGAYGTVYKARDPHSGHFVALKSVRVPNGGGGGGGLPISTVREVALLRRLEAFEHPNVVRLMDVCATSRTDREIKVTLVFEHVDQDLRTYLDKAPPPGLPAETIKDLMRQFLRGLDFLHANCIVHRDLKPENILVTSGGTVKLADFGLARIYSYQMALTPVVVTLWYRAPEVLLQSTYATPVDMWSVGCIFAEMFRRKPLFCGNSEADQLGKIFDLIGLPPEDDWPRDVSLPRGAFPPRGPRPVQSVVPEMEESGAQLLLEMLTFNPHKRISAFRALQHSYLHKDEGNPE

[12] = biological target: T1, Proteasome subunit alpha type; assay: anti-FLAG co-IP LC-MS, exp 3, +Dox

T2 sequence (P78527 whole entry): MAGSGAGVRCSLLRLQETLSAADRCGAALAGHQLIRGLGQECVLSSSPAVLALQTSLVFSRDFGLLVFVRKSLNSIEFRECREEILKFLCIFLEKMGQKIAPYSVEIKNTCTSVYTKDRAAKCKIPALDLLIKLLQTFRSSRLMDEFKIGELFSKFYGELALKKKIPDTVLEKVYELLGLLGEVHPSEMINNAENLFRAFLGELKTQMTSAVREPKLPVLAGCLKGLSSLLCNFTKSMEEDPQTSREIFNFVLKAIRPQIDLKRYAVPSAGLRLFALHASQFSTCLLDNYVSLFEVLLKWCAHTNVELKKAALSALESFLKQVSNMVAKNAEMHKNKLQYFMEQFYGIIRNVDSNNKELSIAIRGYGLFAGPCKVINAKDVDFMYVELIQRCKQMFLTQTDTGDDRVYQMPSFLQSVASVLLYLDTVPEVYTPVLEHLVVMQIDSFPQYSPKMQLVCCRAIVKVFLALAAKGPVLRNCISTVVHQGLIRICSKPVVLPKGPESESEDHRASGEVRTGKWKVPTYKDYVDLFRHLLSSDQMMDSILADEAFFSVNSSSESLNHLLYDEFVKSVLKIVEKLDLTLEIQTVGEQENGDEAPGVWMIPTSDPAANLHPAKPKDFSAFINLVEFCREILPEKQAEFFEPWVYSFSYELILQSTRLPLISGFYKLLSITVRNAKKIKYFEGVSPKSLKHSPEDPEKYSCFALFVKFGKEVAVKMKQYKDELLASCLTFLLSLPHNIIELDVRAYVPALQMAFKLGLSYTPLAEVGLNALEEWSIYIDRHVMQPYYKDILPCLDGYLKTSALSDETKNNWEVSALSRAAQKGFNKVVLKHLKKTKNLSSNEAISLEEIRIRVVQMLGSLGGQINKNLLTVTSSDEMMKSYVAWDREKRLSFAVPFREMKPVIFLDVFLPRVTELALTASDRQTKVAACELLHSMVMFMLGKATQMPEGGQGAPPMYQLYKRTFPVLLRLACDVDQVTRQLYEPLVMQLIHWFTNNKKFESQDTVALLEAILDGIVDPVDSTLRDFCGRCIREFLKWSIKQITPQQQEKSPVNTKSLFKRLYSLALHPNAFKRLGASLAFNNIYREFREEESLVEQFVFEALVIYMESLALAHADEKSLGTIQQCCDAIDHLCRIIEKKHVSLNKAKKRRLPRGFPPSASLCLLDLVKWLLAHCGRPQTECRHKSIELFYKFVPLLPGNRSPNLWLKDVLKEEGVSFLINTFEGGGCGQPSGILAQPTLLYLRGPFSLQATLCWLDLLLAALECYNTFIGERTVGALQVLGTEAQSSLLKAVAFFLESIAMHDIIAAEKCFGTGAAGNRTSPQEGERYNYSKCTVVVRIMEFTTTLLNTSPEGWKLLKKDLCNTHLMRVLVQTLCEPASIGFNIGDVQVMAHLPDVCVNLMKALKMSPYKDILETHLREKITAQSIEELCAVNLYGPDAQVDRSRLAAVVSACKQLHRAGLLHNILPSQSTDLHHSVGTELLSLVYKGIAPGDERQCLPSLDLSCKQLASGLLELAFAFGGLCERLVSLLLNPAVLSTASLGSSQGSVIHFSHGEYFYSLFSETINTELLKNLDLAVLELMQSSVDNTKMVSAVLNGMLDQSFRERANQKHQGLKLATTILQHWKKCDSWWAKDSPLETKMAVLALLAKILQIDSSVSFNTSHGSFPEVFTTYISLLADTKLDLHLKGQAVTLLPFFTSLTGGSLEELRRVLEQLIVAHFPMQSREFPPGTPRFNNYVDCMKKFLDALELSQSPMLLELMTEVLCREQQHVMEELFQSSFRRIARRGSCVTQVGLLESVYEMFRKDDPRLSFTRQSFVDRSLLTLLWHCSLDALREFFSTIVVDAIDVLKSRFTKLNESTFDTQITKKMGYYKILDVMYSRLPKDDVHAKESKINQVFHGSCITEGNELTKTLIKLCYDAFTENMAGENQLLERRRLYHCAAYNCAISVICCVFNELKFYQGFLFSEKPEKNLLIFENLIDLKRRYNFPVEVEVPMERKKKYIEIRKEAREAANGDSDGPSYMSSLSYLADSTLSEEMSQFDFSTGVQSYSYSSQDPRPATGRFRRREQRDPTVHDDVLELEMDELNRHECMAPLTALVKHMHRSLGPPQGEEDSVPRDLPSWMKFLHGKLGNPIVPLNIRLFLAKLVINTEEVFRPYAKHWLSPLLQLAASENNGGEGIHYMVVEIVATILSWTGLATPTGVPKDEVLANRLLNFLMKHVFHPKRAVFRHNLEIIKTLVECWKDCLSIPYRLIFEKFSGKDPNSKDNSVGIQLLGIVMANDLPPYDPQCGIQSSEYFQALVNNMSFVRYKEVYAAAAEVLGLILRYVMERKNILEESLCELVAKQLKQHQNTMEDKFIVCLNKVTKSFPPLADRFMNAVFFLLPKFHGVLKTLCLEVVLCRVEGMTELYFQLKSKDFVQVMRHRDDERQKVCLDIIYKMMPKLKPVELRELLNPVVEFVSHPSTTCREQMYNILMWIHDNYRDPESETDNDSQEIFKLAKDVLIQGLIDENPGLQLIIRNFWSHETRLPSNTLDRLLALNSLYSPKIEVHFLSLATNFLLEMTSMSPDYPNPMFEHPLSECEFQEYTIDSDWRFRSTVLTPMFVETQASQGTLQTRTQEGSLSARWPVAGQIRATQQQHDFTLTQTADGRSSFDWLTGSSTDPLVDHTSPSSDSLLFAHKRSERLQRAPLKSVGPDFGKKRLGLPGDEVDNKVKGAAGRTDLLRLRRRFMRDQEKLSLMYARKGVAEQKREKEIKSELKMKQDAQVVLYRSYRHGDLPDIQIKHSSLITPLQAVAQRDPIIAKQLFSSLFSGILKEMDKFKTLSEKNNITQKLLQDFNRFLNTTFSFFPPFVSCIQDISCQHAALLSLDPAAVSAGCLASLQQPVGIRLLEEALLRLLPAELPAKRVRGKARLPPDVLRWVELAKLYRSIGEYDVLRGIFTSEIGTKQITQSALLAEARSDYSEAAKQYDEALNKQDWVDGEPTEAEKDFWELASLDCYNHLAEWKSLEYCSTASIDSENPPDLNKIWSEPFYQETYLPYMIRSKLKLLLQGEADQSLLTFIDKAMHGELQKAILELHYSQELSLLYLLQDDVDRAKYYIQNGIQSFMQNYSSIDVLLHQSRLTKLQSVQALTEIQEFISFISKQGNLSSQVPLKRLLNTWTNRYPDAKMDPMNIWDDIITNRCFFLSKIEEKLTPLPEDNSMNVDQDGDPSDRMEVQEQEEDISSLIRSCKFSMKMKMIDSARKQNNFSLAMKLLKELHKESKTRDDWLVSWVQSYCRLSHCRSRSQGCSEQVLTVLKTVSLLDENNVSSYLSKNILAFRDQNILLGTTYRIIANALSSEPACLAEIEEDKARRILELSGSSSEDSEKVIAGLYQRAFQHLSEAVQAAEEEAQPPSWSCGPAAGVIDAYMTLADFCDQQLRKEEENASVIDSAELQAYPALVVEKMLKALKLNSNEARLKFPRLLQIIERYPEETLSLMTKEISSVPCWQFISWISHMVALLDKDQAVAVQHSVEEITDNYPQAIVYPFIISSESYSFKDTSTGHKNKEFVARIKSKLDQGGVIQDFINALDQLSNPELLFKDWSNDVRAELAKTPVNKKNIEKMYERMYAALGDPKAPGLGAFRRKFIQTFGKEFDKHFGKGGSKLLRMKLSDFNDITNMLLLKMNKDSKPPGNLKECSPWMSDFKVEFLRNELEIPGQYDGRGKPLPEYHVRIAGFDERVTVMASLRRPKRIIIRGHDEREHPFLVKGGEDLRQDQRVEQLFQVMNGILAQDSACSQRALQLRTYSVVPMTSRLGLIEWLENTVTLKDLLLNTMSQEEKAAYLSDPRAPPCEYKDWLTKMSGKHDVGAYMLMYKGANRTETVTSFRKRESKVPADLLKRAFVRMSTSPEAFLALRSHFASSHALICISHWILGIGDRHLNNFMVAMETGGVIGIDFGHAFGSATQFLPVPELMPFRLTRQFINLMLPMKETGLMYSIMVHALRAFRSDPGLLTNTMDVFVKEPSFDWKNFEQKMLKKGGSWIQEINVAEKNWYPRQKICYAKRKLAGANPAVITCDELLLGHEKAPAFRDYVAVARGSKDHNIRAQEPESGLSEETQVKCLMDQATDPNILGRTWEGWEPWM

B1: i3XFLAG-NLS-CTDaa154-424 (other)
chain: MDYKDHDGDYKDHDIDYKDDDDKPPKRMRREPKKKRKVGRAPAQAGGLCSAAPGGGHPAPSWVAFAHTGAWGTGLPAPHVPCAPGALPQGAFVSQAARAAPALQPSQAAPAEGISQPAPARGDFAYAAPAPPDGALSHPQAPRWPPHPGKSREDRDPQRDGLPGPCAVAQPGPAQAGPQGQGVLAPPTSQGSPWWGWGRGPQVAGAAWEPQAGAAPPPQPAPPDASASARQGQMQGIPAPSQALQEPAPWSALPCGLLLDELLASPEFLQQAQPLLETEAPGELEASEEAASLEAPLSEEEYRALLEEL
notes: Doxycycline-induced in MB135 cells for co-IP; also called longCTD; iDUX4-CTD
Q: For B1, which PSMs [1] is on record?
A: Its PSMs is 1 PSMs.

Q: What about the PSMs [2] of the same binder?
A: The PSMs was 18 PSMs.

Q: And the PSMs [3]?
A: The PSMs was 2 PSMs.

Q: And the PSMs [4]?
A: Its PSMs is 1 PSMs.

Q: And the PSMs (Nucleolin)?
A: The PSMs was 4 PSMs.

Q: And the PSMs [5]?
A: Its PSMs is 3 PSMs.

Q: And the PSMs [6]?
A: Its PSMs is 37 PSMs.

Q: What about the PSMs [7] of the same binder?
A: The PSMs was 4 PSMs.

Q: What about the PSMs [8] of the same binder?
A: The PSMs was 7 PSMs.

Q: And the PSMs [9]?
A: Its PSMs is 9 PSMs.

Q: What about the PSMs [10] of the same binder?
A: The PSMs was 21 PSMs.

Q: And the PSMs [11]?
A: The PSMs was 1 PSMs.

Q: What about the PSMs [12] of the same binder?
A: Its PSMs is 1 PSMs.
